This is an account of results in patent publication US20220257796A1.

The target in the assay is CD46 (human) (UniProt P15529). Nature of the assay: Kd of fiber knob to CD46, Table 1 (method not given).
Chain of UniProt P15529 (P15529 35-343 limits assumed): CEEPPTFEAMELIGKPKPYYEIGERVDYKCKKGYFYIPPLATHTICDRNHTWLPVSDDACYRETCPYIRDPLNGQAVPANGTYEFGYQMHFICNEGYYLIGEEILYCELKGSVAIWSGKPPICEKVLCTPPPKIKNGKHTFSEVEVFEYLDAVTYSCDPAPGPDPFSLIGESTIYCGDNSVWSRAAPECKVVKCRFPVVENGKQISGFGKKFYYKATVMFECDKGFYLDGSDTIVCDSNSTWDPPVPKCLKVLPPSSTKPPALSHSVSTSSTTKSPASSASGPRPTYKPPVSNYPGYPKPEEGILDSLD

The term Kd denotes the constant that tells how readily two partners part at equilibrium. Read a low Kd as a tighter complex. As for Ad11 (fiber knob) (from UniProt P33681), the Kd is 11.2 nM.

“Ad35 fiber knob mutant A8: Ile192Val Ile256Val (from UniProt Q92854)” displayed a Kd of 13.7 nM.

For “Ad35 fiber knob mutant B4: Thr245Ala (from UniProt Q8NHJ6)”, the equilibrium dissociation constant (Kd) worked out at 7.64 nM.

Take “Ad35 fiber knob mutant B5: Ile256Leu (from UniProt P46977)”: the dissociation constant Kd came to 11 nM.
